The labels stand for the following.
B1: 1F4_5C5 (antibody, V domains shown)
VH: EVQLVQSGGGVVQPGRSLRLSCAASGFTSKKYGMHWVRQAPGKGLEWVAVISHDGSKKYYADSVKGRFTISRDNSKNTLFVQLSSLRPEDTAVYYCATSLYSSMDLWGQGTTVTVSS
VL: QSVVTQPPSVSAAPGQKVTISCSGSNSNIGKNYVSWFQQVPGTAPKLLIFEDNQRPSGIPDRFSASKSGTSASLAISGLQSEDEADYYCAAWDDLGGDHWVFGGGTKLTVL
B2: 1F4_4E10 (antibody, V domains shown)
VH: EVQLVQSGGGVVQPGRSLRLSCAASGFTSRAPGMHWVRQAPGKGLEWVAVISHDGSKKYYADSVKGRFTISRDNSKNTLFVQLSSLRPEDTAVYYCATSLYSSMDLWGQGTTVTVSS
VL: QSVVTQPPSVSAAPGQKVTISCSGSNSNIGKNYVSWFQQVPGTAPKLLIFEDNQRPSGIPDRFSASKSGTSASLAISGLQSEDEADYYCAAWDDHNGEHWVFGGGTKLTVL
B3: 1F4_5F8 (antibody, V domains shown)
VH: EVQLVQSGGGVVQPGRSLRLSCAASGFTSRNPGMHWVRQAPGKGLEWVAVISHDGSKKYYADSVKGRFTISRDNSKNTLFVQLSSLRPEDTAVYYCATSLYSSMDLWGQGTTVTVSS
VL: QSVVTQPPSVSAAPGQKVTISCSGSNSNIGKNYVSWFQQVPGTAPKLLIFEDNQRPSGIPDRFSASKSGTSASLAISGLQSEDEADYYCAAWDDSTGVHWVFGGGTKLTVL
B4: 1F4_1E3 (antibody, V domains shown)
VH: EVQLVQSGGGVVQPGRSLRLSCAASGFTSRHPGMHWVRQAPGKGLEWVAVISHDGSKKYYADSVKGRFTISRDNSKNTLFVQLSSLRPEDTAVYYCATSLYSSMDLWGQGTTVTVSS
VL: QSVVTQPPSVSAAPGQKVTISCSGSNSNIGKNYVSWFQQVPGTAPKLLIFEDNQRPSGIPDRFSASKSGTSASLAISGLQSEDEADYYCAAWDDYRGPHWVFGGGTKLTVL

Our source for the Kd, koff and kon values is patent publication US20190284275A1.

The assay concerns the target human KRAS (antigen of the affinity data in Table 1; variant not stated) (human) (UniProt P01116). The experiment in a line: kinetic affinity measurement (Rmax in RU; method and format not named).
For the molecule B1, the Kd is 6.63 nM, the koff was determined as 0.0011 s⁻¹ and the kon was determined as 166000 M⁻¹ s⁻¹.

Take B2: the Kd was found to be 9.6 nM, the koff turned out to be 0.0013 s⁻¹ and the kon was 135000 M⁻¹ s⁻¹.

Take B3: the Kd is 12.6 nM, the koff stood at 0.00229 s⁻¹ and the kon came to 182000 M⁻¹ s⁻¹.

For the molecule B4, the Kd turned out to be 4.2 nM.

One may read the Kd as the constant that tells how readily two partners part at equilibrium. Lower therefore signals a tighter complex. A word on the koff: it is a measure of how fast the partners let go of each other. High values mean a short-lived complex, low ones a long-lived complex. For orientation: kon means the second-order rate constant of association. Read a low kon as slow association.
